The results in this text go back to the RNAGym collection of RNA variant scans (doi:10.7554/elife.80360).

The labels stand for the following.
B1: HDV Ribozyme (parent)
chain: GGCCGGCAUGGUCCCAGCCUCCUCGCUGGCGCCGGCUGGGCAACAUUCCGAGGGGACCGUCCCCUCGGUAAUGGCGAAUGGGACCCA

In this series the parent is B1. As to the kind of experiment: self-cleavage, relative activity (ratio to wild type); higher = more cleavage; co-transcriptional.
As for GGCCGGCAUGGUCCCAGCCUCCUCGCUGUCGCCGGCUUGGCAACAUUCCGAGGGGACCGUCCCCUCGGUAAUGGCGAAUGGGACCCA, the self-cleavage came out at 0.141.
As for GGCCGGCAUGGUCCCAGCCUCCUCGCUGUCGCCGGCUGGGCAACAUUCCGUGGGGACCGUCCCCUCGGUAAUGGCGAAUGGGACCCA, the figure is 0.169; as for GGCCGGCAUGGUCCCAGCCUCCUCGCUGUCGCCGGCUGGGCAACAUUCCGGGGGGACCGUCCCCUCGGUAAUGGCGAAUGGGACCCA, 0.0692.
Under GGCCGGCAUGGUCCCAGCCUCCUCGCUGCCGCCGGCUGGGCAACAUUCCGAGGGGACCGUCCCCCCGGUAAUGGCGAAUGGGACCCA stands 0.138; under GGCCGGCAUGGUCCCAGCCUCCUCGCUGUCGCCGGCUGGGCAACAUUCCGAGGGGACCGUCCCCUCGGUAAUGGCGAAUGGGACCCU, 0.111.
Under GGCCGGCAUGGUCCCAGCCUCCUCGCUGUCGCCGGCUGGGCAACAUUCCGAGGGGACUGUCCCCUCGGUAAUGGCGAAUGGGACCCA stands 0.0292; under GGCCGGCAUGGUCCCAGCCUCCUCGCUGUCGCCGGCUGGGCAACAUUCCGAGGGGACGGUCCCCUCGGUAAUGGCGAAUGGGACCCA, 0.0755.
With GGCCGGCAUGGUCCCAGCCUCCUCGCUGUCGCCGGCUGGGCAACAUUCCGAGGGGACCGUCCCCUCGGUAAUGGCGACUGGGACCCA, the self-cleavage is 0.
With GGCCGGCAUGGUCCCAGCCUCCUCGCUGUCGCCGCCUGGGCAACAUUCCGAGGGGACCGUCCCCUCGGUAAUGGCGAAUGGGACCCA, the self-cleavage is 0.
Under GGCCGGCAUGGUCCCAGCCUCCUCGCUGUCGCCGGCUGGGCAACAUUCCGAGGGGACCGUUCCCUCGGUAAUGGCGAAUGGGACCCA stands 0.122.
For the variant GGCCGGCAUGGUCCCAGCCUCCUCGCUGUCGCCGGCUGGGCCACAUUCCGAGGGGACCGUCCCCUCGGUAAUGGCGAAUGGGACCCA, the self-cleavage was 0.125.
Under GGCCGGCAUGGUCCCAGCCUCCUCGCUGUCGCCGGUUGGGCAACAUUCCGAGGGGACCGUCCCCUCGGUAAUGGCGAAUGGGACCCA stands 0.187; under GGCCGGCAUGGUCCCAGCCUCCUCGCUGUCGCCGGGUGGGCAACAUUCCGAGGGGACCGUCCCCUCGGUAAUGGCGAAUGGGACCCA, 0.201; under GGCCGGCAUGGUCCCAGCCUCCUCGCUGUCGCCGGAUGGGCAACAUUCCGAGGGGACCGUCCCCUCGGUAAUGGCGAAUGGGACCCA, 0.187.
For GGCCGGCAUGGUCCCAGCCUCCUCGCUGUCGCCGGCUGGGCAACAUUCCGAGGGGACCGUCUCCUCGGUAAUGGCGAAUGGGACCCA, the self-cleavage stood at 0.0804.
As for GGCCGGCAUGGUCCCAGCCUCCUCGCUGUCGCCGGCUGGGCAACAUUCCGAGGGGACCGUCGCCUCGGUAAUGGCGAAUGGGACCCA, the self-cleavage worked out at 0.
As to GGCCGGCAUGGUCCCAGCCUCCUCGCUGUCGCCGGCUGGGCAACAUUCCGAGGGGACCGUCACCUCGGUAAUGGCGAAUGGGACCCA, the self-cleavage worked out at 0.0773.
GGCCGGCAUGGUCCCAGCCUCCUCGCUGUCGCCGGCUGGGCAACAUUCCGAGGGGACCGUCCGCUCGGUAAUGGCGAAUGGGACCCA: the self-cleavage stood at 0.0386.
As for GGCCGGCAUGGUCCCAGCCUCCUCGCUGUCGCCGGCUGGGCAACAUUCCGAGGGGACCGUCCACUCGGUAAUGGCGAAUGGGACCCA, the figure is 0.106; as for GGCCGGCAUGGUCCCAGCCUCCUCGCUGUCGCGGGCUGGGCAACAUUCCGAGGGGACCGUCCCCUCGGUAAUGGCGAAUGGGACCCA, 0.0369.
Under GGCCGGCAUGGUCCCAGCCUCCUCGCUGUCGCAGGCUGGGCAACAUUCCGAGGGGACCGUCCCCUCGGUAAUGGCGAAUGGGACCCA stands 0.0519; under GGCCGGCAUGGUCCCAGCCUCCUCGCUGCCGCCGGCUGGGCAACAUUCCGAGGGGACCGGCCCCUCGGUAAUGGCGAAUGGGACCCA, 0.199; under GGCCGGCAUGGUCCCAGCCUCCUCGCUGUCCCCGGCUGGGCAACAUUCCGAGGGGACCGUCCCCUCGGUAAUGGCGAAUGGGACCCA, 0.141.
Under GGCCGGCAUGGUCCCAGCCUCCUCGCUGUCGCCUGCUGGGCAACAUUCCGAGGGGACCGUCCCCUCGGUAAUGGCGAAUGGGACCCA stands 0.0519.
Regarding GGCCGGCAUGGUCCCAGCCUCCUCGCUGUCGCCAGCUGGGCAACAUUCCGAGGGGACCGUCCCCUCGGUAAUGGCGAAUGGGACCCA, the self-cleavage was 0.111.
On to GGCCGGCAUGGUCCCAGCCUCCUCGCUGUCGCCGGCUGGGAAACAUUCCGAGGGGACCGUCCCCUCGGUAAUGGCGAAUGGGACCCA, for which the self-cleavage turned out to be 0.0755.
As for GGCCGGCAUGGUCCCAGCCUCCUCGCUGUCGCCGGCUGGGCAACAUUCCGAGGGGACCGUCCCCUCGGUAAUGGCGAAUGGGAUCCA, the figure is 0.0594.
GGCCGGCAUGGUCCCAGCCUCCUCGCUGUCGCCGGCUGGGCAACAUUCCGAGGGGACCGUCCCCUCGGUAAUGGCGAAUGGGAGCCA: the self-cleavage was 0.0277.
As for GGCCGGCAUGGUCCCAGCCUCCUCGCUGUCGUCGGCUGGGCAACAUUCCGAGGGGACCGUCCCCUCGGUAAUGGCGAAUGGGACCCA, the figure is 0.0665; as for GGCCGGCAUGGUCCCAGCCUCCUCGCUGUCGACGGCUGGGCAACAUUCCGAGGGGACCGUCCCCUCGGUAAUGGCGAAUGGGACCCA, 0.135.
Take GGCCGGCAUGGUCCCAGCCUCCUCGCUGUCGCCGGCUGGGCAACAUUCCGAGGGGACCGUCCCCUCGGUAAUGGAGAAUGGGACCCA: the self-cleavage worked out at 0.0639.
Consider GGCCGGCAUGGUCCCAGCCUCCUCGCUGUCGCCGGCUGGGCAACAUUCCGAGGGGACCGUCCCCUCGGUAAUGGGGAAUGGGACCCA, for which the self-cleavage is 0.116.
